According to US20190040142A1 (Genentech, published 2019):

T1: Rat KLB (limits assumed)
T1 construct: also called rat Klotho-beta
T1 single chain: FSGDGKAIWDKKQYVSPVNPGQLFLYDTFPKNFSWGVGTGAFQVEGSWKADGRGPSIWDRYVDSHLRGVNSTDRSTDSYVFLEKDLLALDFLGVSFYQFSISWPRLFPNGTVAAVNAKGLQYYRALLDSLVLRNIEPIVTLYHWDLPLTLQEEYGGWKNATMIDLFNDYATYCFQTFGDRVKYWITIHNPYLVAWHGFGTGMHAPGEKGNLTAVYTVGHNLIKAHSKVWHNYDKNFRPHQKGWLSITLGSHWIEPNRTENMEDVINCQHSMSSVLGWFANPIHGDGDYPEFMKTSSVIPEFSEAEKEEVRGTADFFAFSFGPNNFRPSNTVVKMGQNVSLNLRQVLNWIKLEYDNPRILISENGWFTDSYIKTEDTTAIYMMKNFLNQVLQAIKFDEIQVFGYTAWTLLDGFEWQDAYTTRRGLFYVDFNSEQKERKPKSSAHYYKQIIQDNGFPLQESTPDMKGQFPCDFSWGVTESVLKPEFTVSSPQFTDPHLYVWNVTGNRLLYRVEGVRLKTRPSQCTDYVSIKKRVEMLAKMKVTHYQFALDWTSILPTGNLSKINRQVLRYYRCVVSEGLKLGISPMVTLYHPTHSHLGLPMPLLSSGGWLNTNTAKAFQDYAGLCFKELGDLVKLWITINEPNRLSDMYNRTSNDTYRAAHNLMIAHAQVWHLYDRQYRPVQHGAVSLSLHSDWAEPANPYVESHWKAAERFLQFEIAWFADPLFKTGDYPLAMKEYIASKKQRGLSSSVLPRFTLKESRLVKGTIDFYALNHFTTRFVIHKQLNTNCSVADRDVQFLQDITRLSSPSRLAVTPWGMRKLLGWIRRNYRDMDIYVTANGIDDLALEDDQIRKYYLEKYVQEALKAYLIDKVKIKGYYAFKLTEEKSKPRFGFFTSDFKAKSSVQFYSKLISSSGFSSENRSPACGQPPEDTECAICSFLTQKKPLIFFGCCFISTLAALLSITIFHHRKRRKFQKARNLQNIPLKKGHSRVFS

B1: anti-KLB antibody clone 4H7 in tri-chain IgG format (antibody)
chain 1: DIVLTQSPASLAVSLGQRATISCKASQSVDYDGDSYMNWYQQKPGQPPKLLIYAASNLKSGIPARFSGSGSGTDFTLNIHPVEEEDAATYYCQQSNEDPRTFGGGTRLEIKRGGGGSGGGGSGGGGSGGGGSQVQLQQSGPELVKPGASVKLSCKASGYTFTNYDINWVRQRPGQGLEWIGWIYPRDGSAKYNAKFKGKATLTVDTSSSTAYMELHSLTSEDSAVYFCARRPLYYGSTHWYFDVWGTGTTVTVSS
chain 2: not shown
notes: VL-linker-VH-CH1-CH2-CH3 (VLfH) plus a separate CL domain disulfide-bonded to CH1; also called 4H7 tcIgG; 4H7 tcIgG1; not shown: human IgG1 heavy chain constant region (CH1-hinge-CH2-CH3); monospecific tcIgG were made by c
B2: anti-KLB antibody clone 28B7 in tri-chain IgG format (antibody)
chain 1: DIVMTQSPSSLAVSVGEKVTLSCKSGQSLLYSRNQKNYLAWYQQKPGQSPKLLISWASTRESGVPDRFTGSGSGTDFTLTISSVKTEDLAVYHCQQYYSYPYTFGGGTRLEIKRGGGGSGGGGSGGGGSGGGGSEVQLQQSGPELVQPGTSVKISCEASGYTFTDYYINWVKQSRGKSLEWIGDINPNNGDTTYNQKFKAKATLTVDRSSNTAYMELRSLTSEDSVVYYCARRFYSSPFDSWGQGTTLTVSS
chain 2: not shown
notes: VL-linker-VH-CH1-CH2-CH3 (VLfH) plus a separate CL domain disulfide-bonded to CH1; also called 28B7 tcIgG; 28B7 tcIgG1; not shown: human IgG1 heavy chain constant region (CH1-hinge-CH2-CH3); monospecific tcIgG were made by c
B3: anti-KLB monoclonal antibody 4H7 (antibody, IgG1, V domains shown)
VH: QVQLQQSGPELVKPGASVKLSCKASGYTFTNYDINWVRQRPGQGLEWIGWIYPRDGSAKYNAKFKGKATLTVDTSSSTAYMELHSLTSEDSAVYFCARRPLYYGSTHWYFDVWGTGTTVTVSS
VL: DIVLTQSPASLAVSLGQRATISCKASQSVDYDGDSYMNWYQQKPGQPPKLLIYAASNLKSGIPARFSGSGSGTDFTLNIHPVEEEDAATYYCQQSNEDPRTFGGGTRLEIK
notes: hybridoma mouse IgG in the first screen; also called clone 4H7; 4H7 IgG
B4: anti-KLB monoclonal antibody 23B3 (antibody, V domains shown)
VH: EVQLQESGPGLVKPSQSLSLTCSVTGYSITSGYYWNWIRQFPGNKLEWMGYIRYDGNSNYNPFLKNRVSITRDTSKNQFFLKLNSVTTEDTATYYCTRKGAYYSSFDALDYWGQGTSVTVSS
VL: DIVMTQSPSSMYASLGERVTISCKASQDIRSYLSWFQQKPGKSPKTLIYRANRLVDGVPSRFSGSGSGQDYSLTITSLEFGDVGLYYCLQYDEFPLTFGAGTKLKIE
notes: also called clone 23B3
B5: anti-KLB monoclonal antibody 28B7 (antibody, IgG1, V domains shown)
VH: EVQLQQSGPELVQPGTSVKISCEASGYTFTDYYINWVKQSRGKSLEWIGDINPNNGDTTYNQKFKAKATLTVDRSSNTAYMELRSLTSEDSVVYYCARRFYSSPFDSWGQGTTLTVSS
VL: DIVMTQSPSSLAVSVGEKVTLSCKSGQSLLYSRNQKNYLAWYQQKPGQSPKLLISWASTRESGVPDRFTGSGSGTDFTLTISSVKTEDLAVYHCQQYYSYPYTFGGGTRLEIK
notes: also called clone 28B7; 28B7 IgG
B6: anti-KLB monoclonal antibody 12B8 (antibody, V domains shown)
VH: QIQLVQSGPELKKPGETAKISCKASGYAFSNYGMNWVKQAPGKDLKWMGWIDTDTGEATYTDDFKGRFVFSLETSASTAYLQINNLKNEDMATYFCAREEYGLFGFPYWGHGTLVTVSA
VL: DIQMTQSSSSFSVSLGDRVTITCKASEDIYNRLAWYQQKPGSAPRLLISAATSLETGVPSRFSGSGSGKDYTLSITSLQTEDVATYYCQQYWSNPLTFGAGTKLELK
notes: Mouse hybridoma antibody; tested as hybridoma supernatant, or recombinantly as mouse IgG2a or human IgG1, depending on the assay; also called clone 12B8; parental antibody 12B8
B7: anti-KLB monoclonal antibody 2C12 (antibody, human IgG1, V domains shown)
VH: EVQLQQSGPGLVKPSQSLSLTCSVTGYSITSGYYWTWIRQFPGNKLEWMGYIKYDGGNYYNPSLRNRISITRDTSKNHFFLKFYSVTAEDTATYFCARGDYYASPYGAMDSWGQGTSVTVSS
VL: DIVMTQSPSSLSASLGDTITITCHASQDIDVWLSWYQQKPGNVPQLLISKSSILHTGVPSRFSGGGSGTGFTLTISSLQPEDIATYYCQQGLSYPFTFGSGTKLKIK
notes: hybridoma mouse IgG in the first screen; also called clone 2C12; 2C12 (human IgG1)

What was measured:
[1] = molecular target: T2, recombinant human KLB (soluble protein) (human, UniProt Q86Z14 53-997, limits assumed); test: SPR, Biacore T200, antibody captured on Protein A chip, monomeric human KLB as analyte, 25 C; mean ± range of two experiments
T2 construct: also called monomeric human KLB; recombinant KLB
Procedure: (§1) For binding affinity determination of tcIgG and traditional IgG, surface plasmon resonance (SPR) measurements using a BIAcore T200 and ProteinA sensor chip was used and dilutions of monomeric human KLB as analyte were injected over the immobilized tcIgG or traditional IgG at 25° C. to determine monovalent affinities. Association rates (kon) and dissociation rates (koff) were calculated using a simple one-to-one Langmuir binding model. The equilibrium dissociation constant (Kd) was calculated as the ratio koff/kon.

[2] = molecular target: T2, recombinant human KLB (soluble protein); test: SPR (BIAcore T200), antibody captured on Protein A chip, monomeric human KLB as analyte, 25 C, 1:1 Langmuir fit
Procedure: as §1

[3] = molecular target: T2, recombinant human KLB (soluble protein); test: binding affinity test of Example 7 (FIG. 21); method not restated, presumably the Biacore assay of Example 6; text of Example 7 (FIG. 21); Table 9 prints 2.06 ± 0.11 nM
Procedure: as §1

[4] = molecular target: T1, Rat KLB; test: FACS, HEK293T cells expressing human/rat KLB chimeric proteins; summary table of + and - by epitope bin
[5] = molecular target: B7; test: biolayer interferometry (Octet), anti-human Fc sensor -> human Ab1 -> no hKLB -> mouse Ab2
Procedure: Epitope binning experiments (FIGS. 11A-11B) were performed by BioLayer Inferometry in 8-channel or 16-channel mode using anti-mouse Fc or anti-human Fc capture biosensors on the Octet Red384 system (Pall Life Sciences, Menlo Park, Calif.). […] Epitope binning with anti-human Fc capture biosensors was done similarly.

[6] = molecular target: T1, Rat KLB; test: flow cytometry, HEK293T cells transiently expressing the construct, anti-human IgG-Alexa 488
[7] = molecular target: T3, human KLB expressed on cells (human, UniProt Q86Z14 53-1044); test: FACS, HEK293T cells expressing human/rat KLB chimeric proteins; summary table of + and - by epitope bin
T3 construct: also called hKLB; Klotho-beta

[8] = molecular target: T2, recombinant human KLB (soluble protein); test: SPR, Biacore T200, antibody captured on Protein A chip, monomeric human KLB as analyte, 25 C; mean of two experiments
Procedure: as §1

[9] = molecular target: T3, human KLB expressed on cells; test: flow cytometry, HEK293T cells transiently expressing the construct, antibody at 2 µg/ml, anti-human IgG-Alexa 488

Row | Kd [1] [nM] | koff [1] [s⁻¹] | kon [1] [M⁻¹ s⁻¹] | kon [2] [M⁻¹ s⁻¹] | Binder | binding result [6] | other results
1 | 1.29 | 0.000427 | 332000 | 332000 | B1 | – | –
2 | 2.06 | 0.000244 | 117000 | 119000 | B2 | – | Kd [3]: 2.05 nM
3 | 0.78 | 0.000444 | 571000 | 571000 | B3 | – | binding result [4]: no binding (tested: not given)
4 | – | – | – | – | B4 | no binding (tested: 2 µg/ml (not on the sheet)) | binding result [5]: no binding; binding result [7]: binds
5 | 2.65 | 0.000276 | – | 104000 | B5 | – | binding result [4]: no binding (tested: not given); kon [8]: 104000 M⁻¹ s⁻¹
6 | – | – | – | – | B6 | no binding (tested: 2 µg/ml (not on the sheet)) | binding result [9]: binds
7 | – | – | – | – | B7 | no binding (tested: 2 µg/ml (not on the sheet)) | binding result [7]: binds
